Data reported in IntAct's records for PubMed 15064722.

B1: WW domain-containing oxidoreductase (Homo sapiens), Q9NZC7 (parent)
chain: MAALRYAGLDDTDSEDELPPGWEERTTKDGWVYYANHTEEKTQWEHPKTGKRKRVAGDLPYGWEQETDENGQVFFVDHINKRTTYLDPRLAFTVDDNPTKPTTRQRYDGSTTAMEILQGRDFTGKVVVVTGANSGIGFETAKSFALHGAHVILACRNMARASEAVSRILEEWHKAKVEAMTLDLALLRSVQHFAEAFKAKNVPLHVLVCNAATFALPWSLTKDGLETTFQVNHLGHFYLVQLLQDVLCRSAPARVIVVSSESHRFTDINDSLGKLDFSRLSPTKNDYWAMLAYNRSKLCNILFSNELHRRLSPRGVTSNAVHPGNMMYSNIHRSWWVYTLLFTLARPFTKSMQQGAATTVYCAAVPELEGLGGMYFNNCCRCMPSPEAQSEETARTLWALSERLIQERLGSQSG
B2: Lipopolysaccharide-induced tumor necrosis factor-alpha factor (Homo sapiens), Q99732 (parent)
chain: MSVPGPYQAATGPSSAPSAPPSYEETVAVNSYYPTPPAPMPGPTTGLVTGPDGKGMNPPSYYTQPAPIPNNNPITVQTVYVQHPITFLDRPIQMCCPSCNKMIVSQLSYNAGALTWLSCGSLCLLGCIAGCCFIPFCVDALQDVDHYCPNCRALLGTYKRL
partner: B1 chain
B3: WW domain-binding protein 1 (Homo sapiens), Q96G27 (parent)
chain: MARASSGNGSEEAWGALRAPQQQLRELCPGVNNQPYLCESGHCCGETGCCTYYYELWWFWLLWTVLILFSCCCAFRHRRAKLRLQQQQRQREINLLAYHGACHGAGPFPTGSLLDLRFLSTFKPPAYEDVVHRPGTPPPPYTVAPGRPLTASSEQTCCSSSSSCPAHFEGTNVEGVSSHQSAPPHQEGEPGAGVTPASTPPSCRYRRLTGDSGIELCPCPASGEGEPVKEVRVSATLPDLEDYSPCALPPESVPQIFPMGLSSSEGDIP
partner: B1 chain

Variants of: B1
Conditions: with litaf_human LITAF

| effect of a mutation on the interaction | Variant |
| --- | --- |
| disrupting interaction | W44F;P47A |
| decreasing interaction | Y85A;P88A |

Variants of: B2
Conditions: with wwox_human WWOX

| effect of a mutation on the interaction | Variant |
| --- | --- |
| decreasing interaction | Y23A |
| disrupting interaction | Y23A;Y61A |

Variants of: B3
Conditions: with wwox_human WWOX

| effect of a mutation on the interaction | Variant |
| --- | --- |
| disrupting interaction | Y141A |
